Experimental data reported in patent publication US20140086829A1 (BIOREC S A, published 2014).

T1: mouse VEGF (Peprotech) (mouse, UniProt Q00731-2 27-190, limits assumed)
T1 construct: also called Mouse VEGF-A
T1 sequence (looked up): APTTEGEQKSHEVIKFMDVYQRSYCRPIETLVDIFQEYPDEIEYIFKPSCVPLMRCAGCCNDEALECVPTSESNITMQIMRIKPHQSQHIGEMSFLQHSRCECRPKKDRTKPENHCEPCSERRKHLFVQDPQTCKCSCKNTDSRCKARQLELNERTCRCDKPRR

T2: isoform 121 of human VEGF-A (Peprotech) (human, UniProt P15692-9 27-147)
T2 construct: also called human VEGF121; VEGF 121
T2 sequence (looked up): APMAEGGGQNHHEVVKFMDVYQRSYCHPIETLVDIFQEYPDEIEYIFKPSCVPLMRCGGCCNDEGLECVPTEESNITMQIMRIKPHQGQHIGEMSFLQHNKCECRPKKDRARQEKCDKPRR

T3: human GST-VEGF (human, UniProt P15692-9 27-147)
T3 construct: also called GST-VEGF humano; not shown: GST fusion partner
T3 sequence (looked up): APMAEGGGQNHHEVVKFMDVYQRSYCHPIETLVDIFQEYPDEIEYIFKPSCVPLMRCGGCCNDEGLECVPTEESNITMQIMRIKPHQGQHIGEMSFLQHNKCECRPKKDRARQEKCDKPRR


How the values were obtained:
[1] = biological target: T1, mouse VEGF (Peprotech); assay: ELISA; antigen coated 1 µg/ml; scFv 10 µg/mL; 9E10-peroxidase
Method: (§1) After several washes, 9E10 monoclonal antibody conjugated to peroxidase was added for 1 hour. After washing, the fragments bound to the solid phase were detected by the addition of substrate solution. The absorbance was read at 492 nm in a microplate reader.

[2] = biological target: T2, isoform 121 of human VEGF-A (Peprotech); assay: as above
Method: as §1

[3] = biological target: T4, isoform 165 of human VEGF-A (Peprotech) (human, UniProt P15692-4 27-191); assay: as above
T4 construct: also called human VEGF165; VEGF 165
Target sequence in this assay (P15692 other isoform, or with tags, fused parts or gaps limits assumed): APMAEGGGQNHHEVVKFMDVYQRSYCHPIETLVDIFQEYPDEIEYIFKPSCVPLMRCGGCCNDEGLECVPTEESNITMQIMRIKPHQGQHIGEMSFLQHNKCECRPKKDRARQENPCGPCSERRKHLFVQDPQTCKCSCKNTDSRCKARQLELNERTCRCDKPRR
Method: as §1

[4] = biological target: T4, isoform 165 of human VEGF-A (Peprotech); assay: SPR, BIAcore-X; VEGF 165 coupled to CM5 chip; scFv injected; Langmuir 1:1
Target sequence in this assay (P15692 other isoform, or with tags, fused parts or gaps limits assumed): as above
Method: (§2) A CM5 sensor chip was activated via the covalent binding of human VEGF using N-Ethyl-N′-(3-dimethylaminopropyl)carbodihimide hydrochloride (EDC) and N-hydroxysuccinimide (NHS), according to the manufacturer's instructions.
(§3) The kinetic parameters and the equilibrium dissociation constants (KD) were calculated using the BIA Evaluation 3.2 software. The binding data were globally adjusted to a Langmuir 1:1 binding model.

[5] = biological target: T4, isoform 165 of human VEGF-A (Peprotech); assay: SPR, BIAcore-X
Method: as §2, §3

[6] = biological target: P64K-VEGFKDR- (human) (UniProt P15692); assay: ELISA; antigen coated 1 µg/ml; scFv 10 µg/mL; 9E10-peroxidase
[7] = biological target: T2, isoform 121 of human VEGF-A (Peprotech); assay: competition ELISA: human VEGF-A isoform 121 coated, scFv varied, blocked ligand soluble KDR-Fc (VEGFR2) at 0.5 ug/mL, bound KDR-Fc detected with anti-human IgG-HRPO, absorbance 492 nm
From the text: Detection of bound soluble receptors was made using anti human IgG antibodies conjugated with HRPO.

[8] = biological target: T3, human GST-VEGF; assay: competition ELISA on coated GST-VEGF with soluble scFv 2H1
Method: For this, Maxisorp 96-well plates (Nunc) were coated with 10 μg/mL GST-VEGF, followed by blocking with PBS-4% skimmed milk. […] After several washes with PBS-0.1% Tween 20, VEGF-bound phages were detected using an anti-M13 antibody, conjugated to peroxidase (Amersham-Pharmacia) for 1 hour at 22° C. Following several washes, the reactions were developed with substrate solution. Absorbance was read at 492 nm in a microplate reader. […] This value is a relative indicator of the affinity of the different clones for the antigen. Higher IC50 values correspond with higher affinity.

[9] = biological target: T1, mouse VEGF (Peprotech); assay: ELISA; antigen coated 1 µg/ml; Fab 10 µg/mL; 9E10-peroxidase
Method: (§4) After blocking the plates with PBS-skimmed milk 4%, the Fab antibody fragments diluted in PBS-skimmed milk 4% were added at a 10 μg/mL concentration, and incubated for 1 h at 22° C. After several washes, 9E10 monoclonal antibody conjugated to peroxidase was added for 1 hour. After washing, the fragments bound to the solid phase were detected by the addition of substrate solution. The absorbance was read at 492 nm in a microplate reader.

[10] = biological target: T2, isoform 121 of human VEGF-A (Peprotech); assay: as above
Method: as §4

[11] = biological target: T4, isoform 165 of human VEGF-A (Peprotech); assay: as above
Target sequence in this assay (P15692 other isoform, or with tags, fused parts or gaps limits assumed): as above

[12] = biological target: P64K-VEGFKDR- (human) (UniProt P15692); assay: as above

Binder	absorbance at 492 nm [1]	absorbance at 492 nm [2]	absorbance at 492 nm [3]	Kd [4] [nM]	fold affinity against scFv 2H1 [5] [fold]	absorbance at 492 nm [6]	IC50 (read off the curve) [7] [µg/mL]	fold IC50 (relative affinity) against the original phage displayed scFv 2H1 [8] [fold]	absorbance at 492 nm [9]	absorbance at 492 nm [10]	absorbance at 492 nm [11]	absorbance at 492 nm [12]
scFv L3H6 antibody fragment (scFv, soluble, from E. coli) scFv: QQVQLVQSGAEVKKPGESLKISCKGSGYSFTSYWIGWVRQMPGKGLEWMGIIYPGDSDTRYSPSFQGQVTISADKSISTAYLQWSSLKASDTAMYYCARQGTHNRKIWGQGTMVTVSSAPQAKSSGSGSESKVDQAVVTQEPSLTVSPGGTVTLTCASSTGAVTSGNYPNWFQQRPGQPPRALIYSTSNKHSWTPARFSGSLLGGKAALTLSGAQPEDEAEYYCRLSYDLARPVFGGGTKLTVLG	1.43	2.84	2.89	26.1	5 to 20	2.77	~8	–	–	–	–	–
scFv L3H7 antibody fragment (scFv, soluble, from E. coli) scFv: QQVQLVQSGAEVKKPGESLKISCKGSGYSFTSYWIGWVRQMPGKGLEWMGIIYPGDSDTRYSPSFQGQVTISADKSISTAYLQWSSLKASDTAMYYCARPYATDTRIWGQGTMVTVSSAPQAKSSGSGSESKVDQAVVTQEPSLTVSPGGTVTLTCASSTGAVTSGNYPNWFQQRPGQPPRALIYSTSNKHSWTPARFSGSLLGGKAALTLSGAQPEDEAEYYCRLSYDLARPVFGGGTKLTVLG	1.12	2.54	2.51	87.3	5 to 20	2.47	~10	–	–	–	–	–
phage displayed scFv clone 3F3 (scFv, Displayed on M13 phage as a protein III fusion; the phage part is not in the letters., also called VH H6) scFv: QQVQLVQSGAEVKKPGESLKISCKGSGYSFTSYWIGWVRQMPGKGLEWMGIIYPGDSDTRYSPSFQGQVTISADKSISTAYLQWSSLKASDTAMYYCARQGTHNRKIWGQGTMVTVSSAPQAKSSGSGSESKVDQAVVTQEPSLTVSPGGTVTLTCASSTGAVTSGNYPNWFQQRPGQPPRALIYSTSNKHSWTPARFSGSLLGGKAALTLSGAQPEDEAEYYCLLSYSGARPVFGGGTKLTVLG	–	–	–	–	–	–	–	6 to 10	–	–	–	–
scFv L3H5 antibody fragment (scFv, soluble, from E. coli) scFv: QQVQLVQSGAEVKKPGESLKISCKGSGYSFTSYWIGWVRQMPGKGLEWMGIIYPGDSDTRYSPSFQGQVTISADKSISTAYLQWSSLKASDTAMYYCARLVHRYRAIWGQGTMVTVSSAPQAKSSGSGSESKVDQAVVTQEPSLTVSPGGTVTLTCASSTGAVTSGNYPNWFQQRPGQPPRALIYSTSNKHSWTPARFSGSLLGGKAALTLSGAQPEDEAEYYCRLSYDLARPVFGGGTKLTVLG	1.39	2.78	2.8	42.1	–	2.61	~9	–	–	–	–	–
phage displayed scFv clone 4D8 (scFv, Displayed on M13 phage as a protein III fusion; the phage part is not in the letters., also called VH H7) scFv: QQVQLVQSGAEVKKPGESLKISCKGSGYSFTSYWIGWVRQMPGKGLEWMGIIYPGDSDTRYSPSFQGQVTISADKSISTAYLQWSSLKASDTAMYYCARPYATDTRIWGQGTMVTVSSAPQAKSSGSGSESKVDQAVVTQEPSLTVSPGGTVTLTCASSTGAVTSGNYPNWFQQRPGQPPRALIYSTSNKHSWTPARFSGSLLGGKAALTLSGAQPEDEAEYYCLLSYSGARPVFGGGTKLTVLG	–	–	–	–	–	–	–	6 to 10	–	–	–	–
Fab 2H1-32 (Fab, V domains shown) VH: QVQLVQSGAEVKKPGESLKISCKGSGYSFTSYWIGWVRQMPGKGLEWMGIIYPGDSDTRYSPSFQGQVTISADKSISTAYLQWSSLKASDTAMYYCARLVVRDTEIWGQGTMVTVSS VL: QAVVTQEPSLTVSPGGTVTLTCASSIGAVTSGNYPNWFQQRPGQPPRALIYSTSNKHSWTPARFSGSLLGGKAALTLSGAQPEDEAEYYCLLSYSGARPVFGGGTKLTVLG	–	–	–	–	–	–	–	–	0.091	0.589	0.601	0.704
Fab L3H6 (Fab, V domains shown, The entries are the mature chains without the six histidines and c-myc that the heavy chain carried at its C-terminus in the assay) VH: QVQLVQSGAEVKKPGESLKISCKGSGYSFTSYWIGWVRQMPGKGLEWMGIIYPGDSDTRYSPSFQGQVTISADKSISTAYLQWSSLKASDTAMYYCARQGTHNRKIWGQGTMVTVSS VL: QAVVTQEPSLTVSPGGTVTLTCASSTGAVTSGNYPNWFQQRPGQPPRALIYSTSNKHSWTPARFSGSLLGGKAALTLSGAQPEDEAEYYCRLSYDLARPVFGGGTKLTVLG	–	–	–	–	–	–	–	–	1.19	2.56	2.46	2.6
Fab L3H5 (Fab, V domains shown, Entries lack the six histidines and c-myc of the heavy chain) VH: QVQLVQSGAEVKKPGESLKISCKGSGYSFTSYWIGWVRQMPGKGLEWMGIIYPGDSDTRYSPSFQGQVTISADKSISTAYLQWSSLKASDTAMYYCARLVHRYRAIWGQGTMVTVSS VL: QAVVTQEPSLTVSPGGTVTLTCASSTGAVTSGNYPNWFQQRPGQPPRALIYSTSNKHSWTPARFSGSLLGGKAALTLSGAQPEDEAEYYCRLSYDLARPVFGGGTKLTVLG	–	–	–	–	–	–	–	–	1.09	2.25	2.35	2.51
Fab L3H7 (Fab, V domains shown, Entries lack the six histidines and c-myc of the heavy chain) VH: QVQLVQSGAEVKKPGESLKISCKGSGYSFTSYWIGWVRQMPGKGLEWMGIIYPGDSDTRYSPSFQGQVTISADKSISTAYLQWSSLKASDTAMYYCARPYATDTRIWGQGTMVTVSS VL: QAVVTQEPSLTVSPGGTVTLTCASSTGAVTSGNYPNWFQQRPGQPPRALIYSTSNKHSWTPARFSGSLLGGKAALTLSGAQPEDEAEYYCRLSYDLARPVFGGGTKLTVLG	–	–	–	–	–	–	–	–	1.1	2.22	2.2	2.42
